The term Kd denotes the free concentration of one partner at which half of the binding sites on the other are occupied at equilibrium, for simple one-to-one binding. A low value points to tighter binding. By stoichiometry N is commonly meant the number of molecules, sites or subunits per partner or assembly.

Experimental findings from publication PMC3496059 (Structure (London, England : 1993), 2012) are described below.

The target of the assay is NSUN4 (residues 26–384) (human, UniProt Q96CB9 26-384). Nature of the assay: ITC. For orientation: ITC needs no label: the signal is the heat of the interaction.
Sequence of NSUN4 (residues 26–384) (Q96CB9 26-384): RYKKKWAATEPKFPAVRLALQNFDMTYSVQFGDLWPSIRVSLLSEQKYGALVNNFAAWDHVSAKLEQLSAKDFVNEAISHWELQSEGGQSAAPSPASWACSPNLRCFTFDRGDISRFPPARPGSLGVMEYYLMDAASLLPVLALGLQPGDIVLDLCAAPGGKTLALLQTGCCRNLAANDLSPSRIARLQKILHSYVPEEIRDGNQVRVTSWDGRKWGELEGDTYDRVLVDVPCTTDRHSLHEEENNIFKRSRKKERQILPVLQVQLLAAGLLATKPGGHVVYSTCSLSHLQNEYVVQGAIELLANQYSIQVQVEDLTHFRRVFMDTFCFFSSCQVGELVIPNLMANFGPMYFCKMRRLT

B1: MTERF4 (residues 66–332) (domain or fragment, human, UniProt Q7Z6M4 66-332, looked up)
chain: EPECRRNLVQCLLEKQGTPVVQGSLELERVMSSLLDMGFSNAHINELLSVRRGASLQQLLDIISEFILLGLNPEPVCVVLKKSPQLLKLPIMQMRKRSSYLQKLGLGEGKLKRVLYCCPEIFTMRQQDINDTVRLLKEKCLFTVQQVTKILHSCPSVLREDLGQLEYKFQYAYFRMGIKHPDIVKSEYLQYSLTKIKQRHIYLERLGRYQTPDKKGQTQIPNPLLKDILRVSEAEFLARTACTSVEEFQVFKKLLAREEEESESSTS
As to B1, the Kd was 13.3 ± 0.4 nM, the dH is -11 ± 0.22 kcal/mol and the “stoichiometry N” value came to 1.08 ± 0.02.
